Measured values: patent US11110182B2, “Multifunctional RNA nanoparticles and methods for treating cancer and therapeutic resistant cancer” (University of Cincinnati, priority 2016, dated 2021)

Columns and labels:
[1] = tested on: HER2-overexpressing BT474 cells; assay: pRNA nanoparticle cellular uptake assay (confocal, flow cytometry), BT474; assay type: cell-based, human; settings: for cellular uptake by flow cytometry: BT474, 3 h incubation at 37° C.; for binding and internalization into cells: BT474, AF647-conjugated, 10 μg/mL, confocal microscopy
Description: FIG. 2A) Confocal microscopy analyses of the internalization of AF647-labeled control and pRNA-HER2apt-siMED1 nanoparticles by BT474 cells. Scale bar: 10 μm. FIG. 2B) Flow cytometry assays of the cellular uptake of AF647-labeled control and pRNA-HER2apt-siMED1 nanoparticles by BT474 cells. FIG. 2C) IVIS Lumina live imaging of BT474 orthotopic xenograft mice 24 hrs after i.v. injection of indicated AF647-labeled pRNA nanoparticles (10 mg/Kg). FIG. 2D) Major organs and tumors of above mice were excised and imaged for AF647 fluorescence. FIG. 2E) Frozen tumor sections were examined for localization of AF647-labeled pRNA nanoparticles (red) using confocal microscopy. The blood vessels were stained with anti-CD31 primary antibody and Alexa488-conjugated secondary antibody (green). The nuclei were stained with DAPI (blue). Scale bar: 50 μm. FIG. 2F) The fluorescence intensity of AF647-labeled pRNA nanoparticles (red) in frozen tumor sections was quantified with Image-pro Plus software.
Cell culture. Human breast cancer luciferase-overexpressing BT474 and MDA-MB-231 cells were maintained in DMEM medium (Hyclone, Thermo Scientific) supplemented with 10% fetal bovine serum (FBS, Sigma) and 1% penicillin/streptomycin (Corning) at 37° C. in a humidified atmosphere with 5% CO2.^53 • Generation of pRNA nanoparticles. The two strands of pRNA were synthesized with the DNA templates, which were amplified with overlapping primers (Sigma) by PCR methods, using a T7 promoter-controlled in vitro RNA transcription system as previously described^33 (Table 1). All the CTP and UTP used for synthesis of the pRNA nanoparticles were 2′-fluoro modified, except the control unmodified pRNA nanoparticles used in the stability assays. Following an overnight transcription at 37° C., RNA strands were purified using RNA clean and concentrator kits (ZYMO research) and examined by 8 M urea denatured 8% PAGE gel. pRNA nanoparticles were assembled by mixing the equal molar amounts of p1 and p2 strands and gradually annealing from 90° C. to 20° C. in 1×RNA annealing buffer containing 50 mM Tris-HCl (pH 7.5), 50 mM NaCl and 1 mM EDTA on a PCR machine. […] The hydrodynamic diameter and Tm value of pRNA nanoparticles were determined using dynamic light scattering and TGGE assay, respectively, as previously described.^54 The AFM imaging of the pRNA nanoparticles was performed at the University of Nebraska Medical Center imaging facility as previously reported.^55 Briefly, the pRNA nanoparticles (5 μL) were deposited on APS modified mica ^56 for a total of 2 min of incubation time. […]

MED1 = MED1 protein level by western blots in MDA-MB-231 cells; assay type: cell-based, human; settings: MDA-MB-231, transfected, 48 h
From the text: FIG. 8A) HER2 expression in BT474 and MDA-MB-231 cells determined by western blot analyses. FIG. 8B) The binding of AF-647-labeled pRNA-HER2apt-siMED1 and its mutant nanoparticles to MDA-MB-231 and BT474 cells examined by confocal microscopy. Green represents the immunofluorescent staining of HER2, and blue represents nuclear staining with DAPI. FIG. 8C) The internalization of AF647-labeled pRNA nanoparticles by MDA-MB-231 cells examined by confocal microscopy. Green represents the immunofluorescent staining of β-actin. Scale bar: 10 μm. FIG. 8D) The cellular uptake of AF647-labeled pRNA nanoparticles by MDA-MB-231 cells quantified by flow cytometry. FIG. 8E) HER2 expression in BT474 xenograft tumors was examined by western blot analyses. FIG. 8F) MDA-MB-231 cells were incubated directly with (as indicated by-) or transfected with pRNAs using lipofectamine 2000. At 48 h post treatment, MED1 protein levels were determined by western blots.
Cell culture. […] The hydrodynamic diameter and Tm value of pRNA nanoparticles were determined using dynamic light scattering and TGGE assay, respectively, as previously described.^54 The AFM imaging of the pRNA nanoparticles was performed at the University of Nebraska Medical Center imaging facility as previously reported.^55 Briefly, the pRNA nanoparticles (5 μL) were deposited on APS modified mica ^56 for a total of 2 min of incubation time. […]

Molecule	cellular uptake by flow cytometry [1]	binding and internalization into cells [1]	MED1 protein level after transfection with lipofectamine 2000 (MED1)
pRNA-HER2apt-siMED1: 3-WJ pRNA nanoparticle bearing a HER2-targeting RNA aptamer and two different MED1 siRNAs; strands p1 SEQ ID NO: 3, p2 SEQ ID NO: 4 (nucleic acid, 2'-F modification; third strand may lack entry; pRNA-HER2apt-siMED1, p1; pRNA-HER2apt-siMED1, p2) chain 1: GGACAGUGAAAGUGAGUCAAAGGAUCAAUCAUGGCCAAAGAUGUUACUUUGAGAGCCUU chain 2: GGCUCUCAAAGUAACAUCUAAGGCCAUGUGUAUGUGGGGGGAGGACGAUGCGGUCUGCUGUGCUUGAUAUGCCCCAGACGACUCGCCCCCCACAUACUUUGUUGAUCCAAUGACUCACUUUCACUGUCCUU	effectively taken up	can bind and be readily internalized	MED1 silencing
pRNA-HER2apt^mut-siMED1: control pRNA nanoparticle with mutant HER2 aptamer; strands p1 SEQ ID NO: 5, p2 SEQ ID NO: 6 (nucleic acid, pRNA-HER2apt(mut)-siMED1, p1; pRNA-HER2apt(mut)-siMED1, p2) chain 1: GGACAGUGAAAGUGAGUCAAAGGAUCAAUCAUGGCCAAAGAUGUUACUUUGAGAGCCUU chain 2: GGCUCUCAAAGUAACAUCUAAGGCCAUGUGUAUGUGGGAUGAGGAGUAUGAAGAUACCUGUACUUGAUAUGCCCCAGACGACAUUCCCCCCACAUACUUUGUUGAUCCAAUGACUCACUUUCACUGUCCUU	notably decreased the uptake efficiency	dramatically impaired	MED1 silencing
